B1: Vinculin (Gallus gallus (Chicken)), P12003-1 (parent)
chain: MPVFHTRTIESILEPVAQQISHLVIMHEEGEVDGKAIPDLTAPVSAVQAAVSNLVRVGKETVQTTEDQILKRDMPPAFIKVENACTKLVRAAQMLQADPYSVPARDYLIDGSRGILSGTSDLLLTFDEAEVRKIIRVCKGILEYLTVAEVVETMEDLVTYTKNLGPGMTKMAKMIDERQQELTHQEHRVMLVNSMNTVKELLPVLISAMKIFVTTKNTKSQGIEEALKNRNFTVEKMSAEINEIIRVLQLTSWDEDAWASKDTEAMKRALALIDSKMNQAKGWLRDPNAPPGDAGEQAIRQILDEAGKAGELCAGKERREILGTCKTLGQMTDQLADLRARGQGATPMAMQKAQQVSQGLDLLTAKVENAARKLEAMTNSKQAIAKKIDAAQNWLADPNGGSEGEEHIRGIMSEARKVAELCEEPKERDDILRSLGEISALTAKLSDLRRHGKGDSPEARALAKQIATSLQNLQSKTNRAVANTRPVKAAVHLEGKIEQAQRWIDNPTVDDRGVGQAAIRGLVAEGRRLANVMMGPYRQDLLAKCDRVDQLAAQLADLAARGEGESPQARAIAAQLQDSLKDLKARMQEAMTQEVSDVFSDTTTPIKLLAVAATAPSDTPNREEVFEERAANFENHAARLGATAEKAAAVGTANKTTVEGIQATVKSARELTPQVVSAARILLRNPGNQAAYEHFETMKNQWIDNVEKMTGLVDEAIDTKSLLDASEEAIKKDLDKCKVAMANMQPQMLVAGATSIARRANRILLVAKREVENSEDPKFREAVKAASDELSKTISPMVMDAKAVAGNISDPGLQKSFLDSGYRILGAVAKVREAFQPQEPDFPPPPPDLEHLHLTDELAPPKPPLPEGEVPPPRPPPPEEKDEEFPEQKAGEAINQPMMMAARQLHDEARKWSSKGNDIIAAAKRMALLMAEMSRLVRGGSGNKRALIQCAKDIAKASDEVTRLAKEVAKQCTDKRIRTNLLQVCERIPTISTQLKILSTVKATMLGRTNISDEESEQATEMLVHNAQNLMQSVKETVREAEAASIKIRTDAGFTLRWVRKTPWYQ

In this assay the parent is B1. The note with it: with acts_rabit ACTA1, P68135.
For V1001A, the “effect of a mutation on the interaction” value was “decreasing interaction strength”. For the variant I997A, the “effect of a mutation on the interaction” value is listed as “decreasing interaction strength”.

These data come from IntAct's records for PubMed 24685146.
